Tests used:
Conditions in all cases: 20 nM; 72 h
MCF10A [1] = assay: percent viability (nuclei count relative to siNT); higher = more viable cells
Protocol: (§1)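 After 72 h, cells were fixed and stained with Hoechst and anti-fibrillarin, and nucleoli per nucleus were counted with CellProfiler. Values are plate-adjusted percent effect for the one-nucleolus and 5+ nucleoli phenotypes, normalised to siNT (0%) and to the positive controls siNOL11 or siKIF11 (100%), as the mean of biological triplicates. Percent viability is the nuclei count relative to siNT.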

MCF10A [2] = assay: 5+ nucleoli phenotype percent effect (relative to siNT 0% and siKIF11 100%); higher = more cells with five or more nucleoli
Protocol: as §1

MCF10A [3] = assay: one-nucleolus phenotype percent effect (relative to siNT 0% and siNOL11 100%); higher = more cells with one nucleolus (ribosome biogenesis inhibition)
Protocol: as §1

Sequence: CAAAGUCCUUCCUAUUUUUCCC [hsa-miR-6507-3p]
- percent viability (MCF10A [1]): 104%
- 5+ nucleoli phenotype percent effect (MCF10A [2]): -15.5%
- one-nucleolus phenotype percent effect (MCF10A [3]): -3.22%

Sequence: UUGUGGCUGGUCAUGAGGCUAA [hsa-miR-4474-3p]
- percent viability (MCF10A [1]): 75.4%
- 5+ nucleoli phenotype percent effect (MCF10A [2]): 22.3%
- one-nucleolus phenotype percent effect (MCF10A [3]): 3.27%

Sequence: UGAGUCAGCAACAUAUCCCAUG [hsa-miR-5702]
- percent viability (MCF10A [1]): 86.4%
- 5+ nucleoli phenotype percent effect (MCF10A [2]): 52.5%
- one-nucleolus phenotype percent effect (MCF10A [3]): -25.5%

Sequence: UAGAGAGGGGAAGGAUGUGAUGU [hsa-miR-6758-5p]
- percent viability (MCF10A [1]): 44.4%
- 5+ nucleoli phenotype percent effect (MCF10A [2]): -13.9%
- one-nucleolus phenotype percent effect (MCF10A [3]): 12.9%

Sequence: UCAAAACUGAGGGGCAUUUUCU [hsa-miR-1323]
- percent viability (MCF10A [1]): 55.9%
- 5+ nucleoli phenotype percent effect (MCF10A [2]): 27.8%
- one-nucleolus phenotype percent effect (MCF10A [3]): -19.4%

Sequence: UUGGACAGAAAACACGCAGGAA [hsa-miR-4520a-3p]
- percent viability (MCF10A [1]): 59.1%
- 5+ nucleoli phenotype percent effect (MCF10A [2]): -25%
- one-nucleolus phenotype percent effect (MCF10A [3]): -3.29%

Sequence: UUCAGAUCCCAGCGGUGCCUCU [hsa-miR-5100]
- percent viability (MCF10A [1]): 39.2%
- 5+ nucleoli phenotype percent effect (MCF10A [2]): -27.6%
- one-nucleolus phenotype percent effect (MCF10A [3]): 14.1%

Sequence: ACCCCUGCCACUCACUGGCC [hsa-miR-6801-3p]
- percent viability (MCF10A [1]): 62%
- 5+ nucleoli phenotype percent effect (MCF10A [2]): 1.82%
- one-nucleolus phenotype percent effect (MCF10A [3]): -4.08%

Sequence: ACUCCAGUUUUAGUUCUCUUG [hsa-miR-3925-3p]
- percent viability (MCF10A [1]): 63.4%
- 5+ nucleoli phenotype percent effect (MCF10A [2]): 38%
- one-nucleolus phenotype percent effect (MCF10A [3]): -22.1%

Sequence: AGGGGGCGGGCUCCGGCG [hsa-miR-4488]
- percent viability (MCF10A [1]): 70.5%
- 5+ nucleoli phenotype percent effect (MCF10A [2]): 8.35%
- one-nucleolus phenotype percent effect (MCF10A [3]): -5.44%

Sequence: AAUGUUUUUUCCUGUUUCC [hsa-miR-4307]
- percent viability (MCF10A [1]): 63.9%
- 5+ nucleoli phenotype percent effect (MCF10A [2]): 3.12%
- one-nucleolus phenotype percent effect (MCF10A [3]): -12.3%

Sequence: UGGCUGUUGGAGGGGGCAGGC [hsa-miR-4687-3p]
- percent viability (MCF10A [1]): 23.1%
- 5+ nucleoli phenotype percent effect (MCF10A [2]): -1.42%
- one-nucleolus phenotype percent effect (MCF10A [3]): 25.6%

Sequence: UGCUGGGGGCCACAUGAGUGUG [hsa-miR-4731-5p]
- percent viability (MCF10A [1]): 20.7%
- 5+ nucleoli phenotype percent effect (MCF10A [2]): -2.14%
- one-nucleolus phenotype percent effect (MCF10A [3]): 40.3%

Sequence: UCAGGCAAAGGGAUAUUUACAGA [hsa-miR-4742-5p]
- percent viability (MCF10A [1]): 45.1%
- 5+ nucleoli phenotype percent effect (MCF10A [2]): 6.44%
- one-nucleolus phenotype percent effect (MCF10A [3]): -11.1%

Sequence: CGUCCCGGGGCUGCGCGAGGCA [hsa-miR-4449]
- percent viability (MCF10A [1]): 75.7%
- 5+ nucleoli phenotype percent effect (MCF10A [2]): -7.62%
- one-nucleolus phenotype percent effect (MCF10A [3]): -6.92%

Sequence: GGGGGUCCCCGGUGCUCGGAUC [hsa-miR-615-5p]
- percent viability (MCF10A [1]): 137%
- 5+ nucleoli phenotype percent effect (MCF10A [2]): 33.1%
- one-nucleolus phenotype percent effect (MCF10A [3]): -20%

Sequence: UUCUGGAUAACAUGCUGAAGCU [hsa-miR-5706]
- percent viability (MCF10A [1]): 176%
- 5+ nucleoli phenotype percent effect (MCF10A [2]): 51.3%
- one-nucleolus phenotype percent effect (MCF10A [3]): -32.6%

Sequence: UGUGCAGCAGGCCAACCGAGA [hsa-miR-3944-5p]
- percent viability (MCF10A [1]): 69%
- 5+ nucleoli phenotype percent effect (MCF10A [2]): 4.63%
- one-nucleolus phenotype percent effect (MCF10A [3]): -7.88%

Sequence: AAAUCUCUGCAGGCAAAUGUGA [hsa-miR-216b]
- percent viability (MCF10A [1]): 97.3%
- 5+ nucleoli phenotype percent effect (MCF10A [2]): 44.2%
- one-nucleolus phenotype percent effect (MCF10A [3]): -16.2%

Sequence: UGGAGAGAAAGGCAGUUCCUGA [hsa-miR-185-5p]
- percent viability (MCF10A [1]): 21.7%
- 5+ nucleoli phenotype percent effect (MCF10A [2]): -10.1%
- one-nucleolus phenotype percent effect (MCF10A [3]): 5.33%

Sequence: UUAUCAGAAUCUCCAGGGGUAC [hsa-miR-361-5p]
- percent viability (MCF10A [1]): 62.4%
- 5+ nucleoli phenotype percent effect (MCF10A [2]): -4.16%
- one-nucleolus phenotype percent effect (MCF10A [3]): -9.14%

Sequence: CCUGACACCCCAUCUGCCCUCA [hsa-miR-6730-3p]
- percent viability (MCF10A [1]): 61.8%
- 5+ nucleoli phenotype percent effect (MCF10A [2]): -26.1%
- one-nucleolus phenotype percent effect (MCF10A [3]): 26.8%

Sequence: AUGUGGGCUCAGGCUCA [hsa-miR-4296]
- percent viability (MCF10A [1]): 26.9%
- 5+ nucleoli phenotype percent effect (MCF10A [2]): -35.4%
- one-nucleolus phenotype percent effect (MCF10A [3]): 44.2%

Sequence: AUCUGGAGGUAAGAAGCACUUU [hsa-miR-516b-5p]
- percent viability (MCF10A [1]): 61.6%
- 5+ nucleoli phenotype percent effect (MCF10A [2]): 48.7%
- one-nucleolus phenotype percent effect (MCF10A [3]): -1.83%
